Laboratory results as given in PMC11096414.

Molecular target: Flag-tagged MAVS wt, Q7Z434
Assay: co-IP
Conditions: remark: other sources report otherwise

Chain of Flag-tagged MAVS wt, Q7Z434 (Q7Z434 whole entry): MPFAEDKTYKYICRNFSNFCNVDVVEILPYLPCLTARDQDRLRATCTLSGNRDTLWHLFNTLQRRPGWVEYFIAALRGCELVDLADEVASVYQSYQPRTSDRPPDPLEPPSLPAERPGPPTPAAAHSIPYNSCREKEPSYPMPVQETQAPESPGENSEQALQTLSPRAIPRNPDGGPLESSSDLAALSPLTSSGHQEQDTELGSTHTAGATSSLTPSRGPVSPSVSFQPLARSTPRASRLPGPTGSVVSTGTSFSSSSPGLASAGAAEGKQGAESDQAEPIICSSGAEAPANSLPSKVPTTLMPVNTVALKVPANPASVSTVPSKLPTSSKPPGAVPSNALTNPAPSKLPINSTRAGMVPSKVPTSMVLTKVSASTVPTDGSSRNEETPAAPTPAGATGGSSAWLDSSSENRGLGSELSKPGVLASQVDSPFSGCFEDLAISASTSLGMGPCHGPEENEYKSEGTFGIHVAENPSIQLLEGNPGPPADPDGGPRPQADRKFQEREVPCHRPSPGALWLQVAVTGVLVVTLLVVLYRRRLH

| fold reduction of the co-precipitate in the presence of 4-OI (against no 4-OI) [fold] | Binder |
| --- | --- |
| 3.7 | GFP-tagged TBK1, Q9UHD2 1-729 (enzyme) MQSTSNHLWLLSDILGQGATANVFRGRHKKTGDLFAIKVFNNISFLRPVDVQMREFEVLKKLNHKNIVKLFAIEEETTTRHKVLIMEFCPCGSLYTVLEEPSNAYGLPESEFLIVLRDVVGGMNHLRENGIVHRDIKPGNIMRVIGEDGQSVYKLTDFGAARELEDDEQFVSLYGTEEYLHPDMYERAVLRKDHQKKYGATVDLWSIGVTFYHAATGSLPFRPFEGPRRNKEVMYKIITGKPSGAISGVQKAENGPIDWSGDMPVSCSLSRGLQVLLTPVLANILEADQEKCWGFDQFFAETSDILHRMVIHVFSLQQMTAHKIYIHSYNTATIFHELVYKQTKIISSNQELIYEGRRLVLEPGRLAQHFPKTTEENPIFVVSREPLNTIGLIYEKISLPKVHPRYDLDGDASMAKAITGVVCYACRIASTLLLYQELMRKGIRWLIELIKDDYNETVHKKTEVVITLDFCIRNIEKTVKVYEKLMKINLEAAELGEISDIHTKLLRLSSSQGTIETSLQDIDSRLSPGGSLADAWAHQEGTHPKDRNVEKLQVLLNCMTEIYYQFKKDKAERRLAYNEEQIHKFDKQKLYYHATKAMTHFTDECVKKYEAFLNKSEEWIRKMLHLRKQLLSLTNQCFDIEEEVSKYQEYTNELQETLPQKMFTASSGIKHTMTPIYPSSNTLVEMTLGMKKLKEEMEGVVKELAENNHILERFGSLTMDGGLRNVDCL |
| 1.6 | GFP-tagged RIG-I, O95786 1-925 (natural protein) MTTEQRRSLQAFQDYIRKTLDPTYILSYMAPWFREEEVQYIQAEKNNKGPMEAATLFLKFLLELQEEGWFRGFLDALDHAGYSGLYEAIESWDFKKIEKLEEYRLLLKRLQPEFKTRIIPTDIISDLSECLINQECEEILQICSTKGMMAGAEKLVECLLRSDKENWPKTLKLALEKERNKFSELWIVEKGIKDVETEDLEDKMETSDIQIFYQEDPECQNLSENSCPPSEVSDTNLYSPFKPRNYQLELALPAMKGKNTIICAPTGCGKTFVSLLICEHHLKKFPQGQKGKVVFFANQIPVYEQQKSVFSKYFERHGYRVTGISGATAENVPVEQIVENNDIIILTPQILVNNLKKGTIPSLSIFTLMIFDECHNTSKQHPYNMIMFNYLDQKLGGSSGPLPQVIGLTASVGVGDAKNTDEALDYICKLCASLDASVIATVKHNLEELEQVVYKPQKFFRKVESRISDKFKYIIAQLMRDTESLAKRICKDLENLSQIQNREFGTQKYEQWIVTVQKACMVFQMPDKDEESRICKALFLYTSHLRKYNDALIISEHARMKDALDYLKDFFSNVRAAGFDEIEQDLTQRFEEKLQELESVSRDPSNENPKLEDLCFILQEEYHLNPETITILFVKTRALVDALKNWIEGNPKLSFLKPGILTGRGKTNQNTGMTLPAQKCILDAFKASGDHNILIATSVADEGIDIAQCNLVILYEYVGNVIKMIQTRGRGRARGSKCFLLTSNAGVIEKEQINMYKEKMMNDSILRLQTWDEAVFREKILHIQTHEKFIRDSQEKPKPVPDKENKKLLCRKCKALACYTADVRVIEECHYTVLGDAFKECFVSRPHPKPKQFSSFEKRAKIFCARQNCSHDWGIHVKYKTFEIPVIKIESFVVEDIATGVQTLYSKWKDFHFEKIPFDPAEMSK |
